Measured values taken from patent US20260274944A1 (published 2026).
Numbering of substitutions follows the chain as printed.

T1: mouse RAGE (mRAGE) fused to EGFP, expressed on CHO cells (mouse, UniProt Q62151 23-402)
T1 chain: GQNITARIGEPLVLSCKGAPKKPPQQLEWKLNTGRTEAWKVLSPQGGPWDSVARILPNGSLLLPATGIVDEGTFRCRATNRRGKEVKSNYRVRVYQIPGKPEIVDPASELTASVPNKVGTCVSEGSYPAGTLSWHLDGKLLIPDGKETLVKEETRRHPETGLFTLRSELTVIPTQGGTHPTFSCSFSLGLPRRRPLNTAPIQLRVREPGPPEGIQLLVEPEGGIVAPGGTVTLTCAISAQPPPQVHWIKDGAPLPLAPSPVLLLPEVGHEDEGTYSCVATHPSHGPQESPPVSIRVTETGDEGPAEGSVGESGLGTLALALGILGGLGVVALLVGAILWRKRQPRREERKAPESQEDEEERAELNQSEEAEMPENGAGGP

B1: VHH 5-Fc (Fc fusion)
chain: EVQLVESGGGLVQPGGSLRLSCAASGTIFSLNPMGWYRQAPGKQLELVALISDSGTANYADFVRGRFTISRDTTKKTLYLQMNSLEPEDTAVYYCRSTFAAGNFYWGQGTQVTVSS
B2: VHH 1-Fc (Fc fusion)
chain: QVQLVQSGGGLVQPGGSLRLSCAVSGSIFSSATMGWYRQAPGKQRELAARISSGGSTNYLDSVKGRFTISRDNAKNTVYLQMNSLKLEDTAVYYCRLQANFGLVDYWGKGTQVTVSS
B3: VHH 1 (VHH)
VHH: B2 chain
B4: VHH 3 (VHH)
VHH: QVQLVQSGGGLVQAGGSLRLSCVASGRTFSNYAMAWFRQAPGEEREFVARISWSGGRTSYADSVKGRFTISRDNAKNTVYLQMISLKPEDTAVYYCATEAGAFGGVYSSTGSYDYWGQGTQVTVSS
B5: VHH 4-Fc (Fc fusion)
chain: B4 VHH with Q1E, Q6E, S54R, T98S, A100G, S109A
B6: VHH 4-siTTRm (antibody, V domains shown)
VH: B4 VHH with Q1E, Q6E, S54R, T98S, A100G, S109A
B7: VHH 3-Fc (Fc fusion)
chain: B4 VHH
B8: VHH 2-Fc (Fc fusion)
chain: QVQLVQSGGGLVQAGGSLRLSCAASGSVSSIYAMGWYRQAPGKQREWVTTITGRGITDYAASVKGRFTISRDTAKNAVYLQMNNLKPEDTARYYCKIDRRGYAPYWGQGTQVTVSS
B9: VHH 2 (VHH)
VHH: B8 chain
B10: VHH 2-siTTRm (antibody, V domains shown)
VH: B8 chain

Experiments:
[1] = biological target: T1, mouse RAGE (mRAGE) fused to EGFP, …; experiment: flow cytometry on CHO-mRAGE-EGFP cells; apparent Kd; column head prints TfR, legend says RAGE
[2] = biological target: T2, human RAGE (hRAGE) fused to EGFP, stably expressed on CHO cells (human, UniProt Q15109 23-404); experiment: flow cytometry on CHO-hRAGE-EGFP cells; apparent Kd; column head prints TfR, legend says RAGE
T2 sequence (Q15109 23-404): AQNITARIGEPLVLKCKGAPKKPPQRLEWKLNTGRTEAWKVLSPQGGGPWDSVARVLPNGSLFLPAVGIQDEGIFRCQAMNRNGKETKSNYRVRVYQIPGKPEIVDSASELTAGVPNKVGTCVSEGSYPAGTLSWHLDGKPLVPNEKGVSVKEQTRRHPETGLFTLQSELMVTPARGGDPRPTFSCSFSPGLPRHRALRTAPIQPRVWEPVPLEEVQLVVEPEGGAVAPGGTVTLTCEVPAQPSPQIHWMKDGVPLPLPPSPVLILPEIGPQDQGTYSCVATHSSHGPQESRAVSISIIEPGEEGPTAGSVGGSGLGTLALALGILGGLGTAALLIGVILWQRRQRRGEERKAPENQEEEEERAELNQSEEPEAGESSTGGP

[3] = biological target: T1, mouse RAGE (mRAGE) fused to EGFP, …; experiment: flow cytometry on CHO-mRAGE-EGFP cells; apparent Kd
[4] = biological target: T2, human RAGE (hRAGE) fused to EGFP, …; experiment: flow cytometry on CHO-hRAGE-EGFP cells; apparent Kd
[5] = biological target: T1, mouse RAGE (mRAGE) fused to EGFP, …; experiment: flow
[6] = biological target: T1, mouse RAGE (mRAGE) fused to EGFP, …; experiment: flow cytometry on CHO-mRAGE-EGFP cells; apparent Kd
[7] = biological target: T1, mouse RAGE (mRAGE) fused to EGFP, …; experiment: flow

| Binder | Kd [1] [nM] | Kd [2] [nM] | further results |
| --- | --- | --- | --- |
| B1 | 153 | 3.2 | – |
| B2 | 1.9 | 154 | – |
| B3 | – | – | Kd [3]: 320 nM; Kd [4]: 347 nM |
| B4 | – | – | Kd [5]: 80 nM |
| B5 | 1.4 | – | – |
| B6 | – | – | Kd [6]: 11 nM |
| B7 | – | – | Kd [7]: 1.4 nM |
| B8 | 9.6 | 3.6 | – |
| B9 | – | – | Kd [3]: 526 nM |
| B10 | – | – | Kd [6]: 119 nM |
